# Test results published in the supplement of paper PMC9112550, “Optimization of the antimicrobial peptide Bac7 by deep mutational scanning” (BMC Biology, 2022).
# System: Escherichia coli TOP10
# Assay: shrunken log2 fold change of peptide-encoding DNA abundance (4.5 h post-induction vs induction); higher = less antimicrobial activity (less host growth inhibition)
# Details: time post-induction: 4.5 h; library: site-saturation at positions 5, 18, 19, 20
# 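Further: peptides expressed intracellularly from a pBAD plasmid library in pooled LB shake-flask culture, induced with 0.3% L-arabinose, DNA abundance read by NGS, three biological replicates, DESeq2 with apeglm shrinkage.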
row,Sequence,shrunken log2 fold change
1,RRIRQRPPRLPRPRPRPPLGPRP,0.547
2,RRIRQRPPRLPRPRPRPTKQPRP,0.045
3,RRIRHRPPRLPRPRPRPIPYPRP,-0.3
4,RRIRYRPPRLPRPRPRPKHLPRP,-0.155
5,RRIRSRPPRLPRPRPRPWDMPRP,-0.254
6,RRIRGRPPRLPRPRPRPIINPRP,0.0488
7,RRIRCRPPRLPRPRPRPPFAPRP,0.455
8,RRIRQRPPRLPRPRPRPISKPRP,-0.0725
9,RRIRQRPPRLPRPRPRPIYIPRP,-0.46
10,RRIRDRPPRLPRPRPRPISPPRP,-0.036
11,RRIRCRPPRLPRPRPRPVGVPRP,0.299
12,RRIRHRPPRLPRPRPRPYCWPRP,-0.352
13,RRIRARPPRLPRPRPRPDYAPRP,2.44
14,RRIRTRPPRLPRPRPRPLLLPRP,0.758
15,RRIRMRPPRLPRPRPRPPMHPRP,0.704
16,RRIRGRPPRLPRPRPRPFKLPRP,-0.167
17,RRIRPRPPRLPRPRPRPCQLPRP,-0.659
18,RRIRPRPPRLPRPRPRPVDCPRP,0.00936
19,RRIRGRPPRLPRPRPRPSFDPRP,0.44
20,RRIRSRPPRLPRPRPRPWTKPRP,-0.137
21,RRIRKRPPRLPRPRPRPNEYPRP,0.0869
22,RRIRSRPPRLPRPRPRPERQPRP,0.1
23,RRIRVRPPRLPRPRPRPPHKPRP,0.274
24,RRIRWRPPRLPRPRPRPNYHPRP,-0.486
25,RRIRIRPPRLPRPRPRPRCGPRP,0.0437

row,Sequence,shrunken log2 fold change
1,RRIRKRPPRLPRPRPRPYGMPRP,-0.284
2,RRIRKRPPRLPRPRPRPVEYPRP,0.0119
3,RRIRQRPPRLPRPRPRPHCSPRP,-0.104
4,RRIRIRPPRLPRPRPRPQNEPRP,-0.226
5,RRIRRRPPRLPRPRPRPINHPRP,-0.273
6,RRIRKRPPRLPRPRPRPKHWPRP,0.162
7,RRIRERPPRLPRPRPRPKWCPRP,-0.0117
8,RRIRCRPPRLPRPRPRPGKGPRP,-0.025
9,RRIRERPPRLPRPRPRPKYDPRP,-0.0434
10,RRIRWRPPRLPRPRPRPTMKPRP,-0.0612
11,RRIRFRPPRLPRPRPRPMKMPRP,-0.0224
12,RRIRVRPPRLPRPRPRPKHNPRP,-0.292
13,RRIRVRPPRLPRPRPRPLWKPRP,-0.0321
14,RRIRRRPPRLPRPRPRPRGGPRP,0.509
15,RRIRQRPPRLPRPRPRPDMIPRP,-0.303
16,RRIRPRPPRLPRPRPRPHKQPRP,-0.022
17,RRIRCRPPRLPRPRPRPYKHPRP,-1.04
18,RRIRLRPPRLPRPRPRPHIDPRP,-0.135
19,RRIRDRPPRLPRPRPRPEQWPRP,-0.0491
20,RRIRGRPPRLPRPRPRPEAEPRP,2.74
21,RRIRTRPPRLPRPRPRPPASPRP,1.72
22,RRIRGRPPRLPRPRPRPKLYPRP,0.354
23,RRIRPRPPRLPRPRPRPCQVPRP,-0.132
24,RRIRCRPPRLPRPRPRPEVHPRP,-0.328
25,RRIRARPPRLPRPRPRPWQTPRP,0.0127

row,Sequence,shrunken log2 fold change
1,RRIRARPPRLPRPRPRPFKVPRP,0.0346
2,RRIRLRPPRLPRPRPRPRQDPRP,0.152
3,RRIRPRPPRLPRPRPRPIVRPRP,0.029
4,RRIRYRPPRLPRPRPRPVIAPRP,-0.354
5,RRIRQRPPRLPRPRPRPTVEPRP,0.186
6,RRIRARPPRLPRPRPRPQFFPRP,0.0526
7,RRIRVRPPRLPRPRPRPQLKPRP,-0.177
8,RRIRKRPPRLPRPRPRPRVMPRP,0.436
9,RRIRARPPRLPRPRPRPWWPPRP,0.292
10,RRIRRRPPRLPRPRPRPYCIPRP,-0.264
11,RRIRTRPPRLPRPRPRPSCWPRP,0.00851
12,RRIRLRPPRLPRPRPRPILQPRP,-0.129
13,RRIRDRPPRLPRPRPRPRRTPRP,0.186
14,RRIRWRPPRLPRPRPRPKMSPRP,0.163
15,RRIRKRPPRLPRPRPRPGSPPRP,0.166
16,RRIRARPPRLPRPRPRPHSIPRP,-0.344
17,RRIRQRPPRLPRPRPRPETEPRP,0.0982
18,RRIRPRPPRLPRPRPRPIQLPRP,-0.0767
19,RRIRARPPRLPRPRPRPYLAPRP,-0.594
20,RRIRYRPPRLPRPRPRPWKEPRP,-0.0075
21,RRIRHRPPRLPRPRPRPFQDPRP,0.0239
22,RRIRRRPPRLPRPRPRPHAFPRP,-0.103
23,RRIRKRPPRLPRPRPRPYSDPRP,0.0075
24,RRIRVRPPRLPRPRPRPKYHPRP,-0.373
25,RRIRVRPPRLPRPRPRPIGTPRP,-0.0334

row,Sequence,shrunken log2 fold change
1,RRIRYRPPRLPRPRPRPNIFPRP,-0.42
2,RRIRFRPPRLPRPRPRPHMHPRP,-0.655
3,RRIRDRPPRLPRPRPRPMHPPRP,-0.0589
4,RRIRFRPPRLPRPRPRPPPTPRP,1.39
5,RRIRRRPPRLPRPRPRPRNTPRP,0.436
6,RRIRVRPPRLPRPRPRPTCIPRP,-0.372
7,RRIRYRPPRLPRPRPRPWMVPRP,-0.523
8,RRIRFRPPRLPRPRPRPVEGPRP,-0.0615
9,RRIRGRPPRLPRPRPRPAIKPRP,0.534
10,RRIRIRPPRLPRPRPRPPANPRP,-0.0976
11,RRIRDRPPRLPRPRPRPAKFPRP,0.0399
12,RRIRKRPPRLPRPRPRPIEAPRP,0.0321
13,RRIRRRPPRLPRPRPRPEALPRP,0.115
14,RRIRRRPPRLPRPRPRPVPQPRP,0.28
15,RRIRFRPPRLPRPRPRPCNAPRP,-0.23
16,RRIRTRPPRLPRPRPRPKSKPRP,0.0217
17,RRIRDRPPRLPRPRPRPIKMPRP,0.0713
18,RRIRCRPPRLPRPRPRPSMMPRP,-0.307
19,RRIRFRPPRLPRPRPRPMESPRP,0.0556
20,RRIRCRPPRLPRPRPRPFESPRP,0.0262
21,RRIRQRPPRLPRPRPRPFNRPRP,-0.0328
22,RRIRTRPPRLPRPRPRPVLDPRP,-0.0579
23,RRIRRRPPRLPRPRPRPKKTPRP,-0.0163
24,RRIRRRPPRLPRPRPRPTFCPRP,0.0676
25,RRIRIRPPRLPRPRPRPLISPRP,-0.127

row,Sequence,shrunken log2 fold change
1,RRIRARPPRLPRPRPRPKAEPRP,0.821
2,RRIRPRPPRLPRPRPRPWLAPRP,0.343
3,RRIRLRPPRLPRPRPRPWLTPRP,-0.18
4,RRIRIRPPRLPRPRPRPKFNPRP,-1.09
5,RRIRDRPPRLPRPRPRPQCIPRP,-0.0275
6,RRIRIRPPRLPRPRPRPVFPPRP,-0.221
7,RRIRERPPRLPRPRPRPWYIPRP,-0.0599
8,RRIRLRPPRLPRPRPRPQGRPRP,-0.136
9,RRIRYRPPRLPRPRPRPQYAPRP,-0.262
10,RRIRWRPPRLPRPRPRPIHAPRP,0.0364
11,RRIRRRPPRLPRPRPRPDQYPRP,-0.126
12,RRIRGRPPRLPRPRPRPYGAPRP,-0.00762
13,RRIRMRPPRLPRPRPRPIYLPRP,-0.268
14,RRIRDRPPRLPRPRPRPEKAPRP,0.236
15,RRIRNRPPRLPRPRPRPQNFPRP,0.0364
16,RRIRKRPPRLPRPRPRPNMDPRP,-0.0504
17,RRIRIRPPRLPRPRPRPELCPRP,0.0211
18,RRIRPRPPRLPRPRPRPTTIPRP,-0.223
19,RRIRMRPPRLPRPRPRPAREPRP,1.86
20,RRIRERPPRLPRPRPRPKKLPRP,-0.083
21,RRIRYRPPRLPRPRPRPWINPRP,-0.803
22,RRIRARPPRLPRPRPRPEIPPRP,0.3
23,RRIRARPPRLPRPRPRPFHHPRP,-0.294
24,RRIRWRPPRLPRPRPRPYIQPRP,-1.07
25,RRIRDRPPRLPRPRPRPDVSPRP,-0.00965
